Source: article PMC8684745 (Molecular Biology of the Cell, 2021)

Key:
[1] = biological target: Drp1 (full-length human Drp1 isoform 3, Drp1 000) (human) (UniProt O00429); assay: TIRF microscopy
[2] = biological target: Drp1/actin bundles (actin filaments prebundled by Cy5-Drp1) (human | rabbit) (UniProt O15027); assay: TIRF microscopy
AUC = biological target: the molecule itself; assay: AUC

Sequence of Drp1/actin bundles (actin filaments prebundled by Cy5-Drp1) (human | rabbit) (O15027 whole entry): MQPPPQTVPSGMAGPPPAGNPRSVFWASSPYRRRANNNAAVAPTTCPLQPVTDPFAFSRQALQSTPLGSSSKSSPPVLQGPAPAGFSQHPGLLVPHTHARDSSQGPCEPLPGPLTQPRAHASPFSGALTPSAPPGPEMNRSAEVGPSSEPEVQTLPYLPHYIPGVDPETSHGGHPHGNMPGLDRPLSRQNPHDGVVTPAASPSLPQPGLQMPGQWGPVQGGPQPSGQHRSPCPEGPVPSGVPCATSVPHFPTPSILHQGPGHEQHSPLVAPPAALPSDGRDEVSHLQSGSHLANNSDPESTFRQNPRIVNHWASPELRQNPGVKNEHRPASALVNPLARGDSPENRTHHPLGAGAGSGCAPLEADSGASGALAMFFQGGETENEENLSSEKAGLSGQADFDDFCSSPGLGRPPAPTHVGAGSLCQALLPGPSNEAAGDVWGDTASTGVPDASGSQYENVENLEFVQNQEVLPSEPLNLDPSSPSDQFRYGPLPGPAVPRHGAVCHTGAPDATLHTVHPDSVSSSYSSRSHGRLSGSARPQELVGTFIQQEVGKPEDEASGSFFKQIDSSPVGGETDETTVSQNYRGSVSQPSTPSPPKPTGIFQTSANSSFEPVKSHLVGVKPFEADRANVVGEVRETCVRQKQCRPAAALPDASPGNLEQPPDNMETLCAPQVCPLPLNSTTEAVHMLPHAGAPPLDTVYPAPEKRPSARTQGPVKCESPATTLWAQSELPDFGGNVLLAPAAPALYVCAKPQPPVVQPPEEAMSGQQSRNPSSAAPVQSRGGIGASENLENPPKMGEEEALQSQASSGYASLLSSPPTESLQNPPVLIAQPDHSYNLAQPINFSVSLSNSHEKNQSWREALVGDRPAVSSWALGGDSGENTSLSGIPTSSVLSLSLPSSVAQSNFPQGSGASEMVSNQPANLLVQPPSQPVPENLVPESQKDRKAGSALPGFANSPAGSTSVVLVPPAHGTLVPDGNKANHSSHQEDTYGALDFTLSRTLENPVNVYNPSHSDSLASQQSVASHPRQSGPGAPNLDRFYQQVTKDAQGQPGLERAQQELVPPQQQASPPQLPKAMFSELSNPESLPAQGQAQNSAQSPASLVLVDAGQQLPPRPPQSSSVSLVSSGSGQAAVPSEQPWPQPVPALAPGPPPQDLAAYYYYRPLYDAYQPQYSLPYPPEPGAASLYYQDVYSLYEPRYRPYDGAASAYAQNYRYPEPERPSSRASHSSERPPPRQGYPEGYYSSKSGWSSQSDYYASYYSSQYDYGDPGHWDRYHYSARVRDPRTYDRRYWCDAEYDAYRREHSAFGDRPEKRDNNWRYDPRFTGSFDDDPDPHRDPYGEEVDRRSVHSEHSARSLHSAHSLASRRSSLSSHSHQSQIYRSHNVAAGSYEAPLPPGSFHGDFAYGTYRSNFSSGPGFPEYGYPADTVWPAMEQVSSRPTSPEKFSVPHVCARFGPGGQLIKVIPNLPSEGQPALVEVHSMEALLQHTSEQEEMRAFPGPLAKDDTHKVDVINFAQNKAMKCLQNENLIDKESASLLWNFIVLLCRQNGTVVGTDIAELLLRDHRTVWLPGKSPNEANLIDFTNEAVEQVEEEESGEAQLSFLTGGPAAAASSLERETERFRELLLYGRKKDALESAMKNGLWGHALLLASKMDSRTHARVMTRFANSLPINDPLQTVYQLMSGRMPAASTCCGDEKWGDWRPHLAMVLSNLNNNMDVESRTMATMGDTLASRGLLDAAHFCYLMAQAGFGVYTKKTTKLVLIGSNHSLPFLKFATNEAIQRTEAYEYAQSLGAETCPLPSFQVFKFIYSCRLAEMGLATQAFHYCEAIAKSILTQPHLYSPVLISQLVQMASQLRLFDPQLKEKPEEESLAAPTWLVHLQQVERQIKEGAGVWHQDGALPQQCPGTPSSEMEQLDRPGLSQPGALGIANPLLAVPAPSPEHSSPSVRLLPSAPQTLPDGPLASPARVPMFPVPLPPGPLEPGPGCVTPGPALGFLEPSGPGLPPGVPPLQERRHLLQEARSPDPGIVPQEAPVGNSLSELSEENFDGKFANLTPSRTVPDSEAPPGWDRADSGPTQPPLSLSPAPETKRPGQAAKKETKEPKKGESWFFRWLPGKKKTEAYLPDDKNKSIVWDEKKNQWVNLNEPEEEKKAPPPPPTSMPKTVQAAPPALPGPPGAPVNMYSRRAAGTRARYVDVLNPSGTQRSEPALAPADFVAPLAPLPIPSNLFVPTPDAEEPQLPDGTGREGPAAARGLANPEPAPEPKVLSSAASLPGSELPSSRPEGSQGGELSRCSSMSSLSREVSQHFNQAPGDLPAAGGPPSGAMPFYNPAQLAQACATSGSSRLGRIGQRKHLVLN

Mff-L2P (Mff-∆TM with L179P and L186P) (from UniProt Q9GZY8-4 1-218) (domain or fragment)
fold less binding than Mff-∆TM [1]: 5 fold

Mff-∆TM (cytoplasmic region of human Mff isoform 4, C-terminally 6His-tagged) (from UniProt Q9GZY8-4 1-218) (domain or fragment)
percent of Mff-∆TM remaining after wash [2]: 50%

B1: GFP-CC (CC domain of human Mff isoform 4, amino acids 149–197, on the C-terminus of GFP) (domain or fragment)
chain: SGGGGISNIDTTIEGTSDDLTVVDAASLRRQIIKLNRRLQLLEEENKERAKREGGGS
stoichiometry N (AUC): 3
